Results reported in patent publication US20230159661A1 (ICHNOS SCIENCES, published 2023).
Positions count from the first letter of the chain named.

B1: 3A6 chimeric antibody (antibody, human IgG1, kappa, V domains shown)
VH: QVQLKQSGPGLVQPSQSLSITCTVSGFSLTSYGVHWVRQSPGKGLEWLGVIWSGGTTDYNAAFISRLSISQDNSKSQVFFKMNSLQANDTAIYYCAGNQGRTVRPTWFAYWGQGTLVTVSS
VL: DILLTQSPAILSVSPGERVSFSCRASQSIGTSIHWYQQRANGSPRLLIKYASESISGIPSRFSGSGSGTDFTLSINSVESEDIAHYYCQQNSNWPLTFGAGTKLELKR
notes: Mouse-human chimeric IgG1 kappa; also called chimeric 3A6 antibody
B2: 3A6 mouse hybridoma antibody (subclone 3A6A12B5) (antibody, V domains shown)
VH: B1 VH
VL: DILLTQSPAILSVSPGERVSFSCRASQSIGTSIHWYQQRANGSPRLLIKYASESISGIPSRFSGSGSGTDFTLSINSVESEDIAHYYCQQNSNWPLTFGAGTKLELK
notes: Tested as mouse IgG (kappa) from hybridoma: supernatant of the parental clone 3A6, purified antibody of the subclone 3A6A12B5; also called 3A6A12F5; 3A6 hybridoma candidate
B3: CD3×EGFR_SF3 (bispecific antibody, human IgG1, kappa, L234A L235A)
chain 1: EVQLVESGGGLVQPGGSLRLSCAASGFTFNTYAMNWVRQAPGKGLEWVARIRSKYNNYATYYADSVKSRFTISRDDSKNTLYLQMNSLRAEDTAVYYCVRHGNFGNSYVSYFAYWGQGTTVTVSSGGGGSGGGGSGGGGSEIVVTQSPATLSVSPGERATLSCRSSTGAVTESNYANWVQEKPGQAFRGLIGGANKRAPGVPARFSGSLSGDEATLTISSLQSEDFAVYYCALFYSNTWVFGQGTKLEIKGGGGTQVQLQESGPGLVKPSETLSLTCTVSGGSVSSGDYYWTWIRQSPGKGLEWIGHIYYSGNTNYNPSLKSRLTISIDTSKTQFSLKLSSVTAADTAIYYCVRDRVTGAFDIWGQGTMVTVSSASTKGPSVFPLAPSSKSTSGGTAALGCLVKDYFPEPVTVSWNSGALTSGVHTFPAVLQSSGLYSLSSVVTVPSSSLGTQTYICNVNHKPSNTKVDKKVEPKSCDKTHTCPPCPAPEAAGGPSVFLFPPKPKDTLMISRTPEVTCVVVDVSHEDPEVQFKWYVDGVEVHNAKTKPREEQYNSTFRVVSVLTVLHQDWLNGKEYKCKVSNKALPAPIEKTISKTKGQPREPAVYTLPPSREEMTKNQVKLVCLVTGFYPSDIAVEWESSGQPENNYYTTPPMLDSDGSFSLVSWLNVDKSRWQQGNIFSCSVMHEALHNRFTQKSLSLSPG
chain 2: not shown
chain 3: DKTHTCPPCPAPEAAGGPSVFLFPPKPKDTLMISRTPEVTCVVVDVSHEDPEVKFNWYVDGVEVHNAKTKPREEQYNSTYRVVSVLTVLHQDWLNGKEYKCKVSNKALPAPIEKTISKAKGQPREPEVATFPPSRDELTKNQVTLVCLVTGFYPSDIAVEWESNGQPENNYKTDPPLLESDGSFALSSRLRVDKSRWQQGNVFSCSVMHEALHNHYTQKSLSLSPG
notes: Batches AE042, P1069, P1027, TRS
B4: 10E6 chimeric antibody (antibody, human IgG1, kappa, V domains shown)
VH: DVQLQESGPGRVKPSQSLSLTCTVTGYSLTSDYAWSWIRQFPGNRLEWMVYITYSGITTYNPSLKSRISITRDTSKNQFFLQLNSVTTEDTATYYCAGGDYGLSSWFAYWGQGTLVTVSS
VL: DIVLTQSPVTLSVTPGDRVSLSCRASQSISNYLHWYQQKSHESPRLLIKYASQSISGIPSRFSGSGSGTDFTLSINSVETEDFGMYFCQQSNNWPYTFGGGTKLEIKR
notes: Mouse-human chimeric IgG1 kappa; also called chimeric 10E6 antibody
B5: 10E6 mouse hybridoma antibody (subclone 10E6F5) (antibody, V domains shown)
VH: B4 VH
VL: DIVLTQSPVTLSVTPGDRVSLSCRASQSISNYLHWYQQKSHESPRLLIKYASQSISGIPSRFSGSGSGTDFTLSINSVETEDFGMYFCQQSNNWPYTFGGGTKLEIK
notes: Tested as mouse IgG (kappa) from hybridoma: supernatant of the parental clone 10E6, purified antibody of the subclone 10E6F5; also called 10E6 hybridoma candidate

What was measured:
[1] = molecular target: T1, Cynomolgus EGFR-IV_580-638 (cynomolgus); assay: SPR, antibody captured on Protein G
T1 chain: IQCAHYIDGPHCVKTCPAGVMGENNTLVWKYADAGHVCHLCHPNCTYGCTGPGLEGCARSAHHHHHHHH
Procedure: (§1) Measurements were performed on a Biacore 2000 instrument (GE). […] Various human and cynomolgus EGFR constructs were injected as analyte at a concentration of 200 nM at a flow rate of 30 μl/min in HBS-EP buffer. Dissociation time was 4 min. After each binding event, the surface was regenerated with 10 μl of glycine buffer pH 1.5. To verify the integrity of the EGFR domain IV constructs, a polyclonal goat anti-EGFR known to us to contain at least one anti EGFR domain IV binder (AF231, Bio-Techne AG, Zug, Switzerland) was immobilized as described above and human and cynomolgus EGFR constructs were injected as described above.

hEGFR-IV_580-638 = molecular target: T2, hEGFR-IV_580-638 (human); assay: SPR, antibody captured on Protein G
T2 construct: PCR amplified from the His-tagged hEGFR construct; purified on Ni sepharose
T2 chain: T1 chain with A58P, R59T
Procedure: as §1

hEGFR-IV_556-638 = molecular target: T3, hEGFR-IV_556-638 (human); assay: SPR, chimeric antibody captured on Protein G, analyte 200 nM
T3 construct: PCR amplified from the His-tagged hEGFR construct; purified on Ni sepharose
T3 chain: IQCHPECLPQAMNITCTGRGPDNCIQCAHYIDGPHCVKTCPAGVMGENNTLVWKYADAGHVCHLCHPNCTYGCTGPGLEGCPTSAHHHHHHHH
Procedure: as §1

[2] = molecular target: T4, Cynomolgus EGFR-IV_556-638 (cynomolgus); assay: as above
T4 chain: T3 chain with A11V, P82A, T83R
Procedure: as §1

hEGFR-I-II-III_hErbB3-IV = molecular target: T5, hEGFR-I-II-III_hErbB3-IV (human); assay: ELISA, coated antigen 2 ug/ml
T5 construct: also called chimeric EGFR I-III Her3 IV molecule; EGFR-Her3 chimeric molecule (B)
Procedure: Supernatants from both subclones were harvested and purified using a LC-kappa mouse affinity matrix (Life technologies), according to the manufacturer's instructions. These purified antibodies were tested by ELISA on 96-well plates coated with either soluble human EGFR or recombinant EGFR-Her3 chimeric constructs. These molecules were diluted at 2 ug/ml in PBS and immobilized overnight at 4° C. on a high binding 96-well plates. […] As a control, Panitumumab (Vectibix®) was used at the same concentrations. […] Following this incubation, the plates were washed and incubated with 100 ul of TMB substrate. The reaction was stopped by adding 100 μl of H₂SO₄ 2N and the absorbance was read at 450 nm on a Synergy HT2 spectrophotometer (Biotek, USA; distributor: WITTEC AG, Littau, Switzerland).

[3] = molecular target: T6, human EGFR soluble extracellular region with C-terminal poly-histidine tag (hEGFR) (human, UniProt P00533 25-638); assay: ELISA, single EGFR binding, coated huEGFR-His, anti-human IgG Fab-HRP
T6 construct: also called human EGFR His-tagged protein; soluble human EGFR

[4] = molecular target: T7, membrane-bound human EGFR receptor expressed on cells (human, UniProt P00533 25-1210); assay: flow cytometry on NCI-H1703 squamous cancer cells, anti-human IgG Fc-PE
T7 construct: whole, on cells; the construct transfected into BAF cells is not described; also called EGFR-transfected BAF cells
Procedure: (§2) FACS simple binding was performed using PBMCs (to assess binding to CD3) or NCI-H1703 squamous cancer cells (to assess binding to EGFR). Cells were resuspended at 10⁶ cells/ml in FACS buffer (1×PBS+10% Versene+2% FBS), and 100 ul were added to U-bottom 96-well plates which were then centrifuged at 350 g for 3 min. […] The cells were washed in FACS buffer and stained with the following antibodies (ThermoFisher): anti-human CD4 PE-eF610 (1/100), anti-human CD8a APC (1/100) and anti-human IgG (Fc-gamma specific) PE (1/200) for 20 min 4° C. Cells were washed with FACS buffer and resuspended in FACS buffer containing Sytox green viability dye (1/200), for 20 min at 4° C. and acquired on a CytoFlex (Beckman Coulter).
(§3) For the PBMCs, the cells were also labelled with anti-CD4 or anti-CD8 antibodies.

[5] = molecular target: T8, CD3 on human T cells (PBMCs) (human, UniProt P07766 23-207); assay: flow cytometry on PBMCs, T cells, anti-human IgG Fc-PE
T8 construct: whole, on cells; also called CD3ε; CD4+ T cells
Procedure: as §2, §3

[6] = molecular target: T8, CD3 on human T cells (PBMCs); assay: flow cytometry on PBMCs, CD8+ T cells, anti-human IgG Fc-PE
Procedure: as §2, §3

[7] = molecular target: T6, human EGFR soluble extracellular region …; assay: dual binding ELISA, coated human EGFR, detection with huCD3-biotin and streptavidin-HRP
[8] = molecular target: T8, CD3 on human T cells (PBMCs); assay: flow cytometry on PBMCs, CD4+ T cells, anti-human IgG Fc-PE
Procedure: as §2, §3

T8 sequence (P07766 23-207): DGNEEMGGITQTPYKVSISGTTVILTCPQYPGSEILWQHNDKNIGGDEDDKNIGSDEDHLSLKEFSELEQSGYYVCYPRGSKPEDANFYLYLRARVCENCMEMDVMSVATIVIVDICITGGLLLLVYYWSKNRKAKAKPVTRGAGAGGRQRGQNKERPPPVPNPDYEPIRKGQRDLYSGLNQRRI

Binder	binding result [1]	binding result (hEGFR-IV_580-638)	binding result (hEGFR-IV_556-638)	binding result [2]	binding result (hEGFR-I-II-III_hErbB3-IV)	other results
B1	no binding (tested: 200 nM)	no binding (tested: 200 nM)	binds	binds	–	–
B2	–	–	–	–	no binding (tested: 10 to 0.01 µg/ml)	–
B3	–	–	–	–	–	EC50 [3]: 0.053 mg/L; EC50 [4]: 0.182 mg/L; EC50 [5]: 5.93 mg/L; EC50 [6]: 3.91 mg/L; EC50 [7]: 0.171 mg/L; EC50 [8]: 6.05 mg/L
B4	no binding (tested: 200 nM)	no binding (tested: 200 nM)	binds	binds	–	–
B5	–	–	–	–	no binding (tested: 10 to 0.01 µg/ml)	–
